Test results as given in patent US20240181050A1 (COMPASS THERAPEUTICS, published 2024).

How the values were obtained:
Test in all cases: soluble point mutant tested for binding to mAb1; method not named
[1] = molecular target: T1, human CD137 point mutant K114R, soluble protein (human, UniProt Q07011 24-186)
T1 construct: Printed as 'All 4 mutations tested at K114 (R, E, N, T)'; It was isolated from the extracellular-domain library and expressed as a soluble protein

[2] = molecular target: T2, human CD137 point mutant K114E, soluble protein (human, UniProt Q07011 24-186)
T2 construct: Printed as 'All 4 mutations tested at K114 (R, E, N, T)'; It was expressed as a soluble protein

[3] = molecular target: T3, human CD137 point mutant K114N, soluble protein (human, UniProt Q07011 24-186)
T3 construct: Printed as 'All 4 mutations tested at K114 (R, E, N, T)'; It was expressed as a soluble protein

[4] = molecular target: T4, human CD137 point mutant K114T, soluble protein (human, UniProt Q07011 24-186)
T4 construct: Printed as 'All 4 mutations tested at K114 (R, E, N, T)'; It was expressed as a soluble protein

Measured: binding result

T4 sequence (Q07011 24-186 K114T limits assumed): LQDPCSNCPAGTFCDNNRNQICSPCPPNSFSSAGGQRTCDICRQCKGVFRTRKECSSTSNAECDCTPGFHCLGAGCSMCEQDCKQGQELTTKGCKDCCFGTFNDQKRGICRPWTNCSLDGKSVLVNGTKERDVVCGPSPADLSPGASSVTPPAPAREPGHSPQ
T2 sequence (Q07011 24-186 K114E limits assumed): as the sequence (Q07011 24-186 K114T limits assumed) above, with T91E counted along it
T1 sequence (Q07011 24-186 K114R limits assumed): as the sequence (Q07011 24-186 K114T limits assumed) above, with T91R counted along it
T3 sequence (Q07011 24-186 K114N limits assumed): as the sequence (Q07011 24-186 K114T limits assumed) above, with T91N counted along it

B1: anti-CD137 mAb1 (antibody, human IgG4 S228P, kappa, V domains shown)
VH: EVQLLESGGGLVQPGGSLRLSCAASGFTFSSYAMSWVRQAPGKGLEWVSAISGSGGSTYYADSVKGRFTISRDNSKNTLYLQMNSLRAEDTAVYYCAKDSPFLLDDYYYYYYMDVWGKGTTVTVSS
VL: DIQMTQSPSSVSASVGDRVTITCRASQGISSWLAWYQQKPGKAPKLLIYAASSLQSGVPSRFSGSGSGTDFTLTISSLQPEDFATYYCQQGHLFPITFGGGTKVEIKR
notes: also called parental mAb1
no binding: all assays above
